Experimental data reported in the supplement of paper PMC10567573.

B1: IQUB (parent)
chain: EADYEDDSKIAFLMQLQDIQYLTE

Variants of: B1
Assay: protein stability index of a GFP-peptide fusion (GPS, HEK-293T) (PSI 1-6); higher = more stable
Settings: c terminus: a fixed tail appended
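Further: lentivirally expressed fusions sorted by FACS into six bins by GFP to DsRed ratio, PSI derived from sequencing read proportions per bin multiplied by bin number.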

Protein stability index: each site, then its substitutions
S8: H 3.44, P 2.6, K 3.34, V 2.6, W 2.29, C 2.29, E 3.21, T 3.07, D 3.62, L 2.25, R 2.88, A 3.23, G 3.46, M 2.7, N 3.53
Y4: R 3.42, W 3.42, V 3.18, L 3.51, A 3.76, G 3.61, S 3.65, C 3.27, K 3.96, N 4.01, F 3.16, H 3.35, I 3.21, Q 3.78, M 3.07, T 3.66, E 4.09, D 4.24, P 4.15
A2: L 3.46, K 2.89, W 2.17, S 2.89, P 3.73, D 3.53, G 2.71, H 2.51, N 3.41, Q 2.36, V 2.99, C 2.75, M 2.44, F 2.58, R 2.44, I 2.99, T 2.93, E 3.63, Y 2.08
K9: T 2.64, M 2.47, Y 2.42, A 2.48, W 2.61, C 1.86, N 3.08, R 2.89, Q 3.21, D 3.63, H 3.36, F 2.32, E 3.39, G 2.81, V 2.3, I 1.83, P 2.9, S 3.06, L 2.58
D6: C 2.68, G 2.38, A 2.21, E 2.88, K 2.63, V 2.17, F 2.04, N 2.9, M 1.75, I 2.21, H 2.4, W 1.83, S 2.7, R 2.09, T 2.25, Q 2.57, L 1.53, Y 1.86, P 2.34
D3: C 1.69, R 2.34, K 2.58, W 2.93, M 2.03, I 1.97, A 2.1, V 2.51, T 2.48, N 2.87, G 2.77, Q 2.23, E 2.88, S 2.51, H 2.17, L 2.02, P 1.98, Y 1.83, F 1.62
D7: N 2.19, K 2.38, G 2.78, I 1.93, T 2.19, L 1.89, S 2.47, W 2.33, M 2.03, Y 2.18, H 2.98, R 2.87, C 1.88, E 3.14, Q 3.2, V 1.96, F 1.17, P 2.67, A 2.48
E5: T 3.5, W 2.29, R 2.63, C 2.76, M 2.53, P 2.79, H 2.62, Y 2.27, K 2.6, G 2.49, N 3.12, D 3.42, F 2.38, Q 2.62, V 2.38, S 2.24, L 2.43, I 2.29, A 2.22
E1: S 2.65, Y 2.23, L 2.75, C 2.61, T 2.47, R 2.44, F 1.99, G 2.79, K 2.27, A 2.95, D 3.56, I 2.09, Q 2.76, V 1.74, N 2.85, P 2.6, H 3.29, M 2.38, W 2.17
